Assay results taken from patent publication US20260001928A1 (CORTERIA PHARMACEUTICALS, priority 2022, published 2026).
*1 amine or outer side, *2 acyl side, *3 side chain or, on linkers, in order; H or OH if unused. Where no end group is shown, it is not given here. Side-chain parts run from the residue outwards. [ ]: non-standard residue; d: D form. The star is where a group is joined. C18 diacid = O=C(O)CCCCCCCCCCCCCCCCC(=O)*; γGlu = O=C(O)[C@H](CCC(=O)[*:2])N[*:1]; Pentanoyl = CCCCC(=O)*; AEEA = NCCOCCOCC(=O)O; Aib = CC(C)(N)C(=O)O; Propionyl = CCC(=O)*; Butyryl = CCCC(=O)*

Key:
CRF1R receptor = molecular target: T1, CRF1R receptor (UniProt P34998 24-415, limits assumed); assay: cell-based or functional assay
T1 sequence (looked up): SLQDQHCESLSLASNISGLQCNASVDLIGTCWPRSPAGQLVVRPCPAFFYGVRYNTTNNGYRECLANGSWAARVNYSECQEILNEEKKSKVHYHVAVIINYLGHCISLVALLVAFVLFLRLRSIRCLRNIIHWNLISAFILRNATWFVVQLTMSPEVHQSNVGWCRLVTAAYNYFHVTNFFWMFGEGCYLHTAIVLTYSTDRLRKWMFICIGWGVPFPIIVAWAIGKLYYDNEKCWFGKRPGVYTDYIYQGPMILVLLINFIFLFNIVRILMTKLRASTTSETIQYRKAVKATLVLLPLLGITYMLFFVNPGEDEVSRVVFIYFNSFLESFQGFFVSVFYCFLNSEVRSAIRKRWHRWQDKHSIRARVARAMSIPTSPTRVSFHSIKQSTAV

[1] = molecular target: human corticotropin-releasing factor 2a (CRF2a receptor) (human), Q13324; assay: cell-based or functional assay
Chain of human corticotropin-releasing factor 2a (CRF2a receptor) (human), Q13324 (Q13324 20-411): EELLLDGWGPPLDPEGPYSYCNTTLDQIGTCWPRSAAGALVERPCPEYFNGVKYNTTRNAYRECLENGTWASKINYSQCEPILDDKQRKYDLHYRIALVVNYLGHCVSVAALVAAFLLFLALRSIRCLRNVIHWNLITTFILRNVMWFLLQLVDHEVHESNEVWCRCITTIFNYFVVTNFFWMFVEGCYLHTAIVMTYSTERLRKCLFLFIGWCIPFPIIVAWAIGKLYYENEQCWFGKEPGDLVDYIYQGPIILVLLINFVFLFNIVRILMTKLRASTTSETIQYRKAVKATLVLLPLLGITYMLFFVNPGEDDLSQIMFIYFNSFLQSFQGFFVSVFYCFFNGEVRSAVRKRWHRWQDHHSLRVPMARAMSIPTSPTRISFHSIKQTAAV

B1: SEQ ID NO 96 (peptide)
peptide: Pentanoyl-VLSLDVPIKLK([AEEA-AEEA-γGlu-C18 diacid])KILLEQEKQKKQREQAETNKQILAQV-NH2
SMILES: CCCCC(=O)N[C@H](C(=O)N[C@@H](CC(C)C)C(=O)N[C@@H](CO)C(=O)N[C@@H](CC(C)C)C(=O)N[C@@H](CC(=O)O)C(=O)N[C@H](C(=O)N1CCC[C@H]1C(=O)N[C@H](C(=O)N[C@@H](CCCCN)C(=O)N[C@@H](CC(C)C)C(=O)N[C@@H](CCCCNC(=O)COCCOCCNC(=O)COCCOCCNC(=O)CC[C@H](NC(=O)CCCCCCCCCCCCCCCCC(=O)O)C(=O)O)C(=O)N[C@@H](CCCCN)C(=O)N[C@H](C(=O)N[C@@H](CC(C)C)C(=O)N[C@@H](CC(C)C)C(=O)N[C@@H](CCC(=O)O)C(=O)N[C@@H](CCC(N)=O)C(=O)N[C@@H](CCC(=O)O)C(=O)N[C@@H](CCCCN)C(=O)N[C@@H](CCC(N)=O)C(=O)N[C@@H](CCCCN)C(=O)N[C@@H](CCCCN)C(=O)N[C@@H](CCC(N)=O)C(=O)N[C@@H](CCCNC(=N)N)C(=O)N[C@@H](CCC(=O)O)C(=O)N[C@@H](CCC(N)=O)C(=O)N[C@@H](C)C(=O)N[C@@H](CCC(=O)O)C(=O)N[C@H](C(=O)N[C@@H](CC(N)=O)C(=O)N[C@@H](CCCCN)C(=O)N[C@@H](CCC(N)=O)C(=O)N[C@H](C(=O)N[C@@H](CC(C)C)C(=O)N[C@@H](C)C(=O)N[C@@H](CCC(N)=O)C(=O)N[C@H](C(N)=O)C(C)C)[C@@H](C)CC)[C@@H](C)O)[C@@H](C)CC)[C@@H](C)CC)C(C)C)C(C)C
B1 was tested, and the “Emax (% I)” value (CRF1R receptor) was 4% and the EC50 [nM] (cAMP) [1] was 0.49 nM.

B2: SEQ ID NO 26 (peptide)
peptide: Ac-IVLSLDVPIKLK([AEEA-AEEA-γGlu-γGlu-C18 diacid])Q[Aib]LLKQERQKKQREQAEKN[Aib]QILEQV-NH2
SMILES: CC[C@H](C)[C@H](NC(C)=O)C(=O)N[C@H](C(=O)N[C@@H](CC(C)C)C(=O)N[C@@H](CO)C(=O)N[C@@H](CC(C)C)C(=O)N[C@@H](CC(=O)O)C(=O)N[C@H](C(=O)N1CCC[C@H]1C(=O)N[C@H](C(=O)N[C@@H](CCCCN)C(=O)N[C@@H](CC(C)C)C(=O)N[C@@H](CCCCNC(=O)COCCOCCNC(=O)COCCOCCNC(=O)CC[C@H](NC(=O)CC[C@H](NC(=O)CCCCCCCCCCCCCCCCC(=O)O)C(=O)O)C(=O)O)C(=O)N[C@@H](CCC(N)=O)C(=O)NC(C)(C)C(=O)N[C@@H](CC(C)C)C(=O)N[C@@H](CC(C)C)C(=O)N[C@@H](CCCCN)C(=O)N[C@@H](CCC(N)=O)C(=O)N[C@@H](CCC(=O)O)C(=O)N[C@@H](CCCNC(=N)N)C(=O)N[C@@H](CCC(N)=O)C(=O)N[C@@H](CCCCN)C(=O)N[C@@H](CCCCN)C(=O)N[C@@H](CCC(N)=O)C(=O)N[C@@H](CCCNC(=N)N)C(=O)N[C@@H](CCC(=O)O)C(=O)N[C@@H](CCC(N)=O)C(=O)N[C@@H](C)C(=O)N[C@@H](CCC(=O)O)C(=O)N[C@@H](CCCCN)C(=O)N[C@@H](CC(N)=O)C(=O)NC(C)(C)C(=O)N[C@@H](CCC(N)=O)C(=O)N[C@H](C(=O)N[C@@H](CC(C)C)C(=O)N[C@@H](CCC(=O)O)C(=O)N[C@@H](CCC(N)=O)C(=O)N[C@H](C(N)=O)C(C)C)[C@@H](C)CC)[C@@H](C)CC)C(C)C)C(C)C
For B2, the “EC50” value (CRF1R receptor) was > 250 nM, the “Emax (% I)” value (CRF1R receptor) was 1% and the EC50 [nM] (cAMP) [1] was 18.6 nM.

B3: SEQ ID NO 97 (peptide)
peptide: Ac-IVLSLDVPIKLK([AEEA-AEEA-γGlu-C18 diacid])KILLEQEKQKKQREQAETN[Aib]QILAQV-NH2
SMILES: CC[C@H](C)[C@H](NC(C)=O)C(=O)N[C@H](C(=O)N[C@@H](CC(C)C)C(=O)N[C@@H](CO)C(=O)N[C@@H](CC(C)C)C(=O)N[C@@H](CC(=O)O)C(=O)N[C@H](C(=O)N1CCC[C@H]1C(=O)N[C@H](C(=O)N[C@@H](CCCCN)C(=O)N[C@@H](CC(C)C)C(=O)N[C@@H](CCCCNC(=O)COCCOCCNC(=O)COCCOCCNC(=O)CC[C@H](NC(=O)CCCCCCCCCCCCCCCCC(=O)O)C(=O)O)C(=O)N[C@@H](CCCCN)C(=O)N[C@H](C(=O)N[C@@H](CC(C)C)C(=O)N[C@@H](CC(C)C)C(=O)N[C@@H](CCC(=O)O)C(=O)N[C@@H](CCC(N)=O)C(=O)N[C@@H](CCC(=O)O)C(=O)N[C@@H](CCCCN)C(=O)N[C@@H](CCC(N)=O)C(=O)N[C@@H](CCCCN)C(=O)N[C@@H](CCCCN)C(=O)N[C@@H](CCC(N)=O)C(=O)N[C@@H](CCCNC(=N)N)C(=O)N[C@@H](CCC(=O)O)C(=O)N[C@@H](CCC(N)=O)C(=O)N[C@@H](C)C(=O)N[C@@H](CCC(=O)O)C(=O)N[C@H](C(=O)N[C@@H](CC(N)=O)C(=O)NC(C)(C)C(=O)N[C@@H](CCC(N)=O)C(=O)N[C@H](C(=O)N[C@@H](CC(C)C)C(=O)N[C@@H](C)C(=O)N[C@@H](CCC(N)=O)C(=O)N[C@H](C(N)=O)C(C)C)[C@@H](C)CC)[C@@H](C)O)[C@@H](C)CC)[C@@H](C)CC)C(C)C)C(C)C
B3 was tested, and the “Emax (% I)” value (CRF1R receptor) was 0% and the EC50 [nM] (cAMP) [1] was 3.17 nM.

B4: SEQ ID NO 25 (peptide)
peptide: IVLSLDVPIKLK([AEEA-AEEA-γGlu-γGlu-C18 diacid])Q[Aib]LLKQERQKKQREQAEKN[Aib]QILEQV-NH2
modifications: N-terminus assumed
SMILES: CC[C@H](C)[C@H](N)C(=O)N[C@H](C(=O)N[C@@H](CC(C)C)C(=O)N[C@@H](CO)C(=O)N[C@@H](CC(C)C)C(=O)N[C@@H](CC(=O)O)C(=O)N[C@H](C(=O)N1CCC[C@H]1C(=O)N[C@H](C(=O)N[C@@H](CCCCN)C(=O)N[C@@H](CC(C)C)C(=O)N[C@@H](CCCCNC(=O)COCCOCCNC(=O)COCCOCCNC(=O)CC[C@H](NC(=O)CC[C@H](NC(=O)CCCCCCCCCCCCCCCCC(=O)O)C(=O)O)C(=O)O)C(=O)N[C@@H](CCC(N)=O)C(=O)NC(C)(C)C(=O)N[C@@H](CC(C)C)C(=O)N[C@@H](CC(C)C)C(=O)N[C@@H](CCCCN)C(=O)N[C@@H](CCC(N)=O)C(=O)N[C@@H](CCC(=O)O)C(=O)N[C@@H](CCCNC(=N)N)C(=O)N[C@@H](CCC(N)=O)C(=O)N[C@@H](CCCCN)C(=O)N[C@@H](CCCCN)C(=O)N[C@@H](CCC(N)=O)C(=O)N[C@@H](CCCNC(=N)N)C(=O)N[C@@H](CCC(=O)O)C(=O)N[C@@H](CCC(N)=O)C(=O)N[C@@H](C)C(=O)N[C@@H](CCC(=O)O)C(=O)N[C@@H](CCCCN)C(=O)N[C@@H](CC(N)=O)C(=O)NC(C)(C)C(=O)N[C@@H](CCC(N)=O)C(=O)N[C@H](C(=O)N[C@@H](CC(C)C)C(=O)N[C@@H](CCC(=O)O)C(=O)N[C@@H](CCC(N)=O)C(=O)N[C@H](C(N)=O)C(C)C)[C@@H](C)CC)[C@@H](C)CC)C(C)C)C(C)C
B4 was tested, and the “EC50” value (CRF1R receptor) was > 250 nM, the “Emax (% I)” value (CRF1R receptor) was 6% and the EC50 [nM] (cAMP) [1] was 5.02 nM.

B5: SEQ ID NO 95 (peptide)
peptide: Butyryl-VLSLDVPIKLK([AEEA-AEEA-γGlu-C18 diacid])KILLEQEKQKKQREQAETNKQILAQV-NH2
SMILES: CCCC(=O)N[C@H](C(=O)N[C@@H](CC(C)C)C(=O)N[C@@H](CO)C(=O)N[C@@H](CC(C)C)C(=O)N[C@@H](CC(=O)O)C(=O)N[C@H](C(=O)N1CCC[C@H]1C(=O)N[C@H](C(=O)N[C@@H](CCCCN)C(=O)N[C@@H](CC(C)C)C(=O)N[C@@H](CCCCNC(=O)COCCOCCNC(=O)COCCOCCNC(=O)CC[C@H](NC(=O)CCCCCCCCCCCCCCCCC(=O)O)C(=O)O)C(=O)N[C@@H](CCCCN)C(=O)N[C@H](C(=O)N[C@@H](CC(C)C)C(=O)N[C@@H](CC(C)C)C(=O)N[C@@H](CCC(=O)O)C(=O)N[C@@H](CCC(N)=O)C(=O)N[C@@H](CCC(=O)O)C(=O)N[C@@H](CCCCN)C(=O)N[C@@H](CCC(N)=O)C(=O)N[C@@H](CCCCN)C(=O)N[C@@H](CCCCN)C(=O)N[C@@H](CCC(N)=O)C(=O)N[C@@H](CCCNC(=N)N)C(=O)N[C@@H](CCC(=O)O)C(=O)N[C@@H](CCC(N)=O)C(=O)N[C@@H](C)C(=O)N[C@@H](CCC(=O)O)C(=O)N[C@H](C(=O)N[C@@H](CC(N)=O)C(=O)N[C@@H](CCCCN)C(=O)N[C@@H](CCC(N)=O)C(=O)N[C@H](C(=O)N[C@@H](CC(C)C)C(=O)N[C@@H](C)C(=O)N[C@@H](CCC(N)=O)C(=O)N[C@H](C(N)=O)C(C)C)[C@@H](C)CC)[C@@H](C)O)[C@@H](C)CC)[C@@H](C)CC)C(C)C)C(C)C
For B5, the “Emax (% I)” value (CRF1R receptor) was 5% and the EC50 [nM] (cAMP) [1] was 0.76 nM.

B6: SEQ ID NO 94 (peptide)
peptide: Propionyl-VLSLDVPIKLK([AEEA-AEEA-γGlu-C18 diacid])KILLEQEKQKKQREQAETNKQILAQV-NH2
SMILES: CCC(=O)N[C@H](C(=O)N[C@@H](CC(C)C)C(=O)N[C@@H](CO)C(=O)N[C@@H](CC(C)C)C(=O)N[C@@H](CC(=O)O)C(=O)N[C@H](C(=O)N1CCC[C@H]1C(=O)N[C@H](C(=O)N[C@@H](CCCCN)C(=O)N[C@@H](CC(C)C)C(=O)N[C@@H](CCCCNC(=O)COCCOCCNC(=O)COCCOCCNC(=O)CC[C@H](NC(=O)CCCCCCCCCCCCCCCCC(=O)O)C(=O)O)C(=O)N[C@@H](CCCCN)C(=O)N[C@H](C(=O)N[C@@H](CC(C)C)C(=O)N[C@@H](CC(C)C)C(=O)N[C@@H](CCC(=O)O)C(=O)N[C@@H](CCC(N)=O)C(=O)N[C@@H](CCC(=O)O)C(=O)N[C@@H](CCCCN)C(=O)N[C@@H](CCC(N)=O)C(=O)N[C@@H](CCCCN)C(=O)N[C@@H](CCCCN)C(=O)N[C@@H](CCC(N)=O)C(=O)N[C@@H](CCCNC(=N)N)C(=O)N[C@@H](CCC(=O)O)C(=O)N[C@@H](CCC(N)=O)C(=O)N[C@@H](C)C(=O)N[C@@H](CCC(=O)O)C(=O)N[C@H](C(=O)N[C@@H](CC(N)=O)C(=O)N[C@@H](CCCCN)C(=O)N[C@@H](CCC(N)=O)C(=O)N[C@H](C(=O)N[C@@H](CC(C)C)C(=O)N[C@@H](C)C(=O)N[C@@H](CCC(N)=O)C(=O)N[C@H](C(N)=O)C(C)C)[C@@H](C)CC)[C@@H](C)O)[C@@H](C)CC)[C@@H](C)CC)C(C)C)C(C)C
With B6 the “Emax (% I)” value (CRF1R receptor) was 0% and the EC50 [nM] (cAMP) [1] was 1.48 nM.
